The text below walks through data of a protein production outcome set (Wang et al. 2014).

The nature of this data set: label from the status in PepcDB records.
Consider “MKITDISGKIETLVDSLRDMSPTRVRSSFSDEHVSENDDERSSWIALHPSALDMFEQIMRDAEGKQIIMFLDYDGTLSLITEDHDRAYITDEMREVVKEVATYFKTAIISGRSTDKVQSFVKLTGIHYAGSHGMDIKGPTNTDQSNQEEVMFQPASDYLPMIDEVVNVLKEKTKSIPGATVEHNKFCLTVHFRRVDETGWAALAEQVRLVLIDYPKLRLTQGRKVLELRPSIKWDKGKALEFLLNSLGIAESKDVLPVYIGDDRTDEDAFKVLCERGQGFGIIVSKTIKETYASYSLQDPSQVKEFLERLVKWKKQTLGE”, for which the protein production result is “failed”.

In the case of “MKITLIIPTYNAGSIWPNVLDAIKQQTIYPDKLIVIDSGSKDETVLLASDLKNISIFNIDSKDFNHGGTRNLAVTKTLDADVIIFLTQDAILADSDAIKNLVYYFSDPLIAAVCGRQLPHKDANPLAVHARNFNYSSKSIVKSKADIEKFGIKTVFMSNSFAAYRRSVFEELSGFPEHTILAEDMFMAAKMIQAGYKVAYCAEAVVRHSHNYTPREEFQRYFDTGVFHACSPWIQRDLGGAGGEGFRFVKSEIQFLLKNAPFWIPRALLTTFAKFLGYKLGKHWQSLPLSTCRYFSMYKSYWNNIQYSSSKEIKLEHHHHHH”, the protein production result is “failed”.

As to “MKIVVNNQSTLAAELMIVAQENLQKLVEQTKCPNSKALLDRRIFKAKSGEVLPLLHGDKIVILLGLGLRQDFIASEYDKIIAKAAEQLKKLAIKEISVDIDYAFENDNVKQFTLDTVRALISETYVFDQLKTEKENYSLEQIELVYSGDQDIEDSAKIGSAIACGQNYAKDLQNLPANICTTDYMLNEARELTSKYATFSLDYLDQDAMAELGMGCALAVGRGSYMSNYTVCMEYKGGNEGDAPIVLVGKGLVFDNGGICIKQAAGMDSMKMDMGGVAAVMGTMKAIAMLNLPVNVVGVMGLAENAVDARSYRPGDVLKSMKGITVEVSNTDAEGRLVLCDTLTYIGKYKPKAVIDLATLTGAMIISLGDAYSGMFANSDKLANSLEQAANASNDLIWRLPLHKPYLKKIESKVADMDNCGRDRSAGSIVAALFLSKFTEDYEWAHLDIAGSAMGDFASCKASGRPVPLLVHYLISQAK”, the protein production entry was “not failed”.

“MKIWTSEHVFDHPWETVTTAAMQKYPNPMNPSVVGVDVLDRHIDPSGKLHSHRLLSTEWGLPSIVKSLIGAARTKTYVQEHSVVDPVEKTMELKSTNISFTNMVSVDERLIYKPHPQDPEKTVLTQEAIITVKGVSLSSYLEGLMASTISSNASKGREAMEWVIHKLNAEIEELTASARGTIRTPMAAAAFAEK”: the protein production result was “failed”.

Regarding “MKIYHKFLLYQNKLLKPYVRILLGLVEALTYLASLLLIVGVVYEHGFPLSPVEVQQIQILYKAVWIIFLIDVTLHISLEYRNTKKQYRRLAWILSVLLYLTLVPVIFHRPEEEGAILQVWEFLHGKFYHLILLLVFSLLNLSNGLVRLLGRRTNPSLILAVSFMAIILIGTGLLMLPRCTVNGITWVDSLFTATSAVCVTGLVPVDVSTTFTTSGLVVIILLIQIGGLGVMTLTSFFAMFFMGNTSIYNQLVVRDMVSSNSLGSLLSTLLYILGFTLVIEGIGMVSIWFSIHDTLGMNLEEELAFAAFHSISAFCNAGFSTLSGNLGNSMVMTNHNWLFISVSLLIILGGIGFPILVNFKDIVLYHLRHVWTFVRTRKLERHKMPHLYNLNTKIVLIMTFLLLLIGTLAILAFEWNASFAGMSVADKWTQAFFNATCPRTAGFSSVDLASLSVQTLLVYLFLMWVGGGSQSTAGGVKVNAFAVVVLNLVAVLRGSERVEVFGRELSHDSIRRSNATVVMSLGVLFLFIFILSILEPKASLLALTFECVSALSTVGSSLNLTPQLCDASKLLVSLLMFIGRVGLITLMLGIVKQKKNTKYRYPSDNIIIN”, the protein production entry is listed as “failed”.

On to “MKIYLVGGAVRDALLGLPVKDKDWVVVGATPQEMLDAGYQQVGRDFPVFLHPQTHEEYALARTERKSGSGYTGFTCYAAPDVTLEADLQRRDLTINALARDDAGQIIDPYHGRRDLEARLLRHVSPAFGEDPLRVLRVARFAARYAHLSFRIADETLALMREMTAAGELEHLTPERVWKETENALTTRNPQVYFQVLRDCGALRVLFPEIDALFGVPAPAKWHPEIDTGVHTLMTLSMAAMLSPQLDVRFATLCHDLGKGLTPKNLWPRHHGHGPAGVKLVEQLCQRLRVPNDLRDLAKLVAEYHDLIHTFPILQPKTIVKLFDAIDAWRKPQRVEQIALTSEADVRGRTGFEASDYPQGRWLREAWQVAQAVPTKEVVEAGFKGIEIREELTKRRIAAVANWKEKRCPNPAS”, for which the protein production entry is “failed”.

In the case of “MKKALISTLFGVSLAFAKPYTIDKANSSVWFEVKHFTFNETRGAFDNFDGKIDLEPNTKMLSVFEGNIDVKSVNTRDRKRDNHLKTADFFDVVKYPKGSFKMTKYEDGKIYGDLTLRGVTKPVVLEAKIQAPLQNPMNKKEFMVLQAEGKINRKDFGIGKTFSDAVVGDEVKIELKLEAYAQ”, the protein production entry was “failed”.

“MKKCFELTPCLLAFLCITSCVEDVDNERSKGMFSASQSGFSTIEVYDLGPLNKIDLSIAKAGLEDTGGTVTFSVEQSLLDSLNNADGTSYQLLPPECYTIENATYSVSPGGDRRVTGGSLVYDPHKIYNLCGFDELKYVLPLRVSSTGTPMNSDRTATLYGFIVKEAIVRLASTGGDFVVEGGTTTSPMNLDTEISFENEWDLTTSFATKGADYVDNYNSANSTYYIPLPSDFYTLPDVTIAKGKTTGGSAISLLGETLPPGNYLLPVSLGGLSGQGDASINIDKETVANYFVIKQGGPINRDHWTVTANTEEKTGEVSAAYPHNGQTISLIDGEINTFWHSKWQGGEVAPPYEIILDMGKENSVSQLGLIARQNALTSMNLEIYAGDDGETWNLIGKYFFDGSIKTEQMVPVKACDARWIRIYIPTLGSGSSVGHLAEIYVYGTDK”: the protein production entry is reported as “failed”.

With “MKKEIASHLLEIGAVFLQPNDPFTWSSGMKSPIYCDNRLTLSYPKVRQTIAAGLEELIKEHFPTVEVIAGTATAGIAHAAWVSDRMDLPMCYVRSKAKGHGKGNQIEGKAEKGQKVVVVEDLISTGGSAITCVEALREAGCEVLGIVSIFTYELEAGKEKLEAANVASYSLSDYSALTEVAAEKGIIGQAETKKLQEWRKNPADEAWITA”, the protein production entry was “not failed”.

Consider “MKKFFKLKENKTTVRTEVLAGITTFFAMSYILFVNPSILSQTGMPSQGVFLATIIGSIAGTLMMGLYANIPYAMAPGMGLNAFFTYTVVFSLGYTWQEALAMVFICGIISIVITLTRVRRMIIDEIPDSLKKAISAGIGIFLTYIGLKNAGLLNFAIDPGTYSVSGKGAAKGLASITANSSATPSLVNFNNPAVLVAVIGIIITAFFIIKNIKGGVILSIIVTTVIALLAGVVDLSKIDFSANNPVAAVKDLGTIFGAALGNKGLGALFSDAGRIPEVLMTILAFALTDIFDNVGTLIGTGAKAGIFDVTSESTSSGLQNKMDKALFSDMVGTTVGAVAGTSNVTTFVESAAGIGAGGRTGLTAVVVALLFAVSSFFSPLLAIVPTQATAAVLLIVGIMMLSSLKDIEWSDMSQAIPAFFATVFMGLAYSITQGIATGFLFYTFSKLIKKEAKDIHPIIWVLDVLFILNFISLAVL”, for which the protein production entry is given as “failed”.

For “MKKFILIMVLGSALFTGGAIYDGIDNQDMTQPTIHFWEKNPMKLNLYAKGQCTYYVFDRIRQDGNMISNRWGDAKYWANEASKEGYKVNDNPSVGSILQYPKGQHGHVAYVDKVNHDGSLTVFDMNYRKPYEVTKRTVYEYQVDEFNYIHPKKNQSENA”, the protein production entry is “failed”.

For the sequence “MKKFNIKSLTLLIVLLPLIVNANNIDSHLLEQNDIAKYVAQSDTVGSFFERFSALLNYPIVVSKQAAKKRISGEFDLSNPEEMLEKLTLLVGLIWYKDGNALYIYDSGELISKVILLENISLNYLIQYLKDANLYDHRYPIRGNISDKTFYISGPPALVELVANTATLLDKQVSSIGTDKVNFGVIKLKNTFVSDRTYNMRGEDIVIPGVATVVERLLNNGKALSNRQAQNDPMPPFNITQKVSEDSNDFSFSSVTNSSILEDVSLIAYPETNSILVKGNDQQIQIIRDIITQLDIAKRHIELSLWIIDIDKSELNNLGVNWQGTASFGDSFGASFNMSSSASISTLDGNKFIASVMALNQKKKANVVSRPVILTQENIPAIFDNNRTFYVSLVGERNSSLEHVTYGTLINVIPRFSSRGQIEMSLTIEDGTGNSQSNYNYNNENTSVLPEVGRTKISTIARVPQGKSLLIGGYTHETNSNEIISIPFLSSIPVIGNVFKYKTSNISNIVRVFLIQPREIKESSYYNTAEYKSLISEREIQKTTQIIPSETTLLEDEKSLVSYLNY”, the protein production entry is “failed”.

On to “MKKFVTLLLCMLPVSLFAQVNDGIRQAMDNYDYETVVTLIEPDCQDSLLLITKAQALKAMNRYPEAIGVLNSLILKDSTNTKVLIDLAECYKLTGNSRRAANCYQKAMNLQPENKFFRLQFIRSLLASEDYEEARTACHGWLERDSLSATGYKYLGQAYEGLQDAASAFLSYNIAYRRDSLDAQTVARIAGIFNNNQQFKDAVDVTEVYRLSDTTNIDVNRQNAKAYCMLKEYGTAVKRYESLKELGDRSFLTLYYLGVSHYGDNWFYGAYDNLKEAYQKNPMDVNVLYYLAKASARTSWKKEGVEYMEEAFRIAVPSDSMMVRLYDGLVECYDYAGDTKKEVEALEKLYIYTKKNSILYKIACLYDWKEDEKNAIRYYRKYMATVSEDQRYALDEDGNPVEDRITLYQQAWKRIKKIKEEGFFRGDIPTKSFPVEKKDTLALRHAK”, for which the protein production result is “failed”.

As for “MKKGFSALVEHNGYRVLVDTGTDGKILLNNMEGLGIDPNSIDALFLTHGHYDHTGGIAELLKARKDTLDVYAHPRIFEKRIALKPKRRDIGIPFSQEELESLGAIFHLNDKALEFLPGLISSGEIKRETWDRAVGYLLNNEKDPVRDDMALLIDLGDKIAVITGCGHSGILNIAKHAVEISKKPIRALIGGFHLRGASITILEDAVRGLKELNVEMLYPGHCTGIDEYAYLRMKLKAEHLNVGKEIVIK”, the protein production result is recorded as “failed”.

“MKKGRFKRNWPIILFGIIVFIFSFYFKISPKSLKNFTDIMSASLSFSAIVTAIFFASFSLIPTSGSNKLVVMMEDLGTEIKIMDRLLVATFLSFISSLLSFISLFFSKTDTDLISILVVSSWLSSTVMMFLSSFFVLRTLILLVETYNNFKNK”: the protein production entry is “failed”.

On to “MKKIVILIISVLLLGGIIGGVYYFKNANKIGADASYVKITKDPTKSNEISFNNNYTLPAYDENGKETEVTFSADKELRKGAYLKLYIKEDKGVTSFEEVPEKEVPAKAAEKLKLEHHHHHH”, for which the protein production result was “failed”.

Turning to “MKKKDMNKQVKIQDAVAAIILAEGPAGVSTTKVAKRVGIAQSNVYLYFKNKQALIDSVYARETNRILSTTDLDRLSDSTIDVTTRIRLYVQQVYDYSLANPDSLTIIQQIKALNGQGMTISAADADPNNIVANLLTAAIDAKVIKQLPVSLHMGVVFSTIHTHTTNISKGRYAQDQYTFGDIFQMIWDAMKQD”, the protein production result is listed as “not failed”.

Consider “MKKKKAHAAGAGPKLSVTNPPRTFFEDTLALFNSRRFDLLDQKINEAVNKWPNHAVVWKAIGVIMLMEGRFKEAIEPLTTAANLAQGDAQLHHNLGVAYLRLEQYEKAVPWLQRATSLKPDYAQAFANLGIAQAEIGLLQAAESNYRTALKINKDFPEALNNLGNVLNDQKRYGEAEECFRRALVLKPDFAEALNNLGTSLKGLNRLEEAETTYRKSLSLMPDYTRAHIGLGHTLFKLRQPDKAAASFRRAIELSPYELEAHDGLSMTLGDTVPLWHLPMMNDKPRNDAYFNALQAAVTPETRVLEIGTGSGLLSMMSARLGARHVTTCEVVTAIAETAASIVKDNGFADQVTVIPKLSTTLEVGVDLEERADLLVSEILSSEFLGEGVLSSIEDAKRRLLKPGARIIPARGSVRIALFGGRDIEMNVRVDEVYGFDLSRFNDIVPPKQYVGRNDLNIELLSDGIGAIHFDFMGTDHFPTSRSYGIDVPITRAGRCCGVIQWIRLEMDDTFVFENHPAERNVASGWQHCVYLFKTPVDVQPGQVAQIIASHDIRTCWFFLKKIVTP”, for which the protein production result is “failed”.
